According to patent US20210388087A1 (Chugai, published 2021):

target: T1, CD3 epsilon homodimer protein (UniProt P07766 23-126); test: SPR, antibody over immobilised CD3e homodimer;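 also: SPR at 25 °C with CD3 epsilon homodimer amine-coupled to a CM4 sensor chip and antibody flowed over as analyte in HBS-EP+ running buffer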
T1 construct: also called CD3 (CD3 epsilon)
T1 sequence (P07766 23-126): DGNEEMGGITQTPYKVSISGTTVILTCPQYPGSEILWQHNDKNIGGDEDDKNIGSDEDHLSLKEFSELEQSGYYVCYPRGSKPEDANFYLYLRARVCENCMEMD

Row | Binder | KD ratio to GLS3000
1 | CE115HA000/GLS3000 N28K (antibody, IgG1, name in Kabat numbering, V domains shown, one-arm IgG1) VH: QVQLVESGGGVVQPGRSLRLSCAASGFTFSNAWMHWVRQAPGKGLEWVAQIKAKSNNYATYYAESVKGRFTISRDDSKNSLYLQMNSLKTEDTAVYYCRYVHYGAYYGVDAWGQGTTVTVSS VL: DIVMTQSPLSLPVTPGEPASISCRSSQSLVHSKRNTYLHWYQQKPGQAPRLLIYKVSNRFSGVPDRFSGSGSGTDFTLKISRVEAEDVGVYYCGQGTQVPYTFGQGTKLEIK | 2.34
2 | CE115HA000/GLS3000 N28S (antibody, IgG1, name in Kabat numbering, V domains shown, one-arm IgG1) VH: QVQLVESGGGVVQPGRSLRLSCAASGFTFSNAWMHWVRQAPGKGLEWVAQIKAKSNNYATYYAESVKGRFTISRDDSKNSLYLQMNSLKTEDTAVYYCRYVHYGAYYGVDAWGQGTTVTVSS VL: DIVMTQSPLSLPVTPGEPASISCRSSQSLVHSSRNTYLHWYQQKPGQAPRLLIYKVSNRFSGVPDRFSGSGSGTDFTLKISRVEAEDVGVYYCGQGTQVPYTFGQGTKLEIK | 4.3
3 | CE115HA000/GLS3000 N28V (antibody, IgG1, name in Kabat numbering, V domains shown, one-arm IgG1) VH: QVQLVESGGGVVQPGRSLRLSCAASGFTFSNAWMHWVRQAPGKGLEWVAQIKAKSNNYATYYAESVKGRFTISRDDSKNSLYLQMNSLKTEDTAVYYCRYVHYGAYYGVDAWGQGTTVTVSS VL: DIVMTQSPLSLPVTPGEPASISCRSSQSLVHSVRNTYLHWYQQKPGQAPRLLIYKVSNRFSGVPDRFSGSGSGTDFTLKISRVEAEDVGVYYCGQGTQVPYTFGQGTKLEIK | 3.73
4 | CE115HA000/GLS3000 N28T (antibody, IgG1, name in Kabat numbering, V domains shown, one-arm IgG1) VH: QVQLVESGGGVVQPGRSLRLSCAASGFTFSNAWMHWVRQAPGKGLEWVAQIKAKSNNYATYYAESVKGRFTISRDDSKNSLYLQMNSLKTEDTAVYYCRYVHYGAYYGVDAWGQGTTVTVSS VL: DIVMTQSPLSLPVTPGEPASISCRSSQSLVHSTRNTYLHWYQQKPGQAPRLLIYKVSNRFSGVPDRFSGSGSGTDFTLKISRVEAEDVGVYYCGQGTQVPYTFGQGTKLEIK | 2.67
5 | CE115HA000/GLS3000 N28Q (antibody, IgG1, name in Kabat numbering, V domains shown, one-arm IgG1) VH: QVQLVESGGGVVQPGRSLRLSCAASGFTFSNAWMHWVRQAPGKGLEWVAQIKAKSNNYATYYAESVKGRFTISRDDSKNSLYLQMNSLKTEDTAVYYCRYVHYGAYYGVDAWGQGTTVTVSS VL: DIVMTQSPLSLPVTPGEPASISCRSSQSLVHSQRNTYLHWYQQKPGQAPRLLIYKVSNRFSGVPDRFSGSGSGTDFTLKISRVEAEDVGVYYCGQGTQVPYTFGQGTKLEIK | 3.48
6 | CE115HA000/GLS3000 N28M (antibody, IgG1, name in Kabat numbering, V domains shown, one-arm IgG1) VH: QVQLVESGGGVVQPGRSLRLSCAASGFTFSNAWMHWVRQAPGKGLEWVAQIKAKSNNYATYYAESVKGRFTISRDDSKNSLYLQMNSLKTEDTAVYYCRYVHYGAYYGVDAWGQGTTVTVSS VL: DIVMTQSPLSLPVTPGEPASISCRSSQSLVHSMRNTYLHWYQQKPGQAPRLLIYKVSNRFSGVPDRFSGSGSGTDFTLKISRVEAEDVGVYYCGQGTQVPYTFGQGTKLEIK | 3.29
7 | CE115HA000/GLS3000 N28L (antibody, IgG1, name in Kabat numbering, V domains shown, one-arm IgG1) VH: QVQLVESGGGVVQPGRSLRLSCAASGFTFSNAWMHWVRQAPGKGLEWVAQIKAKSNNYATYYAESVKGRFTISRDDSKNSLYLQMNSLKTEDTAVYYCRYVHYGAYYGVDAWGQGTTVTVSS VL: DIVMTQSPLSLPVTPGEPASISCRSSQSLVHSLRNTYLHWYQQKPGQAPRLLIYKVSNRFSGVPDRFSGSGSGTDFTLKISRVEAEDVGVYYCGQGTQVPYTFGQGTKLEIK | 3.34
8 | CE115HA000/GLS3000 N28P (antibody, IgG1, name in Kabat numbering, V domains shown, one-arm IgG1) VH: QVQLVESGGGVVQPGRSLRLSCAASGFTFSNAWMHWVRQAPGKGLEWVAQIKAKSNNYATYYAESVKGRFTISRDDSKNSLYLQMNSLKTEDTAVYYCRYVHYGAYYGVDAWGQGTTVTVSS VL: DIVMTQSPLSLPVTPGEPASISCRSSQSLVHSPRNTYLHWYQQKPGQAPRLLIYKVSNRFSGVPDRFSGSGSGTDFTLKISRVEAEDVGVYYCGQGTQVPYTFGQGTKLEIK | 4.18
